Source: article PMC11645210 (Cell, 2024)

What was measured:
Experiment in all cases: SPR
Conditions in all cases: both partners purified
SARS-CoV-1 Urbani RBD = target: T1, SARS-CoV-1 Urbani RBD (SARS-CoV-1 Urbani)
T1 construct: source: Expi293F, purified (cobalt IMAC, SEC)

[1] = target: T2, SARS-CoV-2 Wuhan-Hu-1 RBD (SARS-CoV-2, UniProt P0DTC2)
T2 construct: source: Expi293F, purified (cobalt IMAC, SEC)

SARS-CoV-1 (Urbani) RBD = target: T3, SARS-CoV-1 (Urbani) RBD (SARS-CoV-1 Urbani)
T3 construct: source: Expi293F, purified (cobalt IMAC, SEC)

WIV1 RBD = target: T4, WIV1 RBD (Bat SARS-like coronavirus WIV1)
T4 construct: source: Expi293F, purified (cobalt IMAC, SEC)

| Binder | binding result (SARS-CoV-1 Urbani RBD) | Kd [1] [nM] | koff [1] [s⁻¹] | kon [1] [M⁻¹ s⁻¹] | Kd (SARS-CoV-1 (Urbani) RBD) [nM] | koff (SARS-CoV-1 (Urbani) RBD) [s⁻¹] | kon (SARS-CoV-1 (Urbani) RBD) [M⁻¹ s⁻¹] | Kd (WIV1 RBD) [nM] | koff (WIV1 RBD) [s⁻¹] | kon (WIV1 RBD) [M⁻¹ s⁻¹] |
| --- | --- | --- | --- | --- | --- | --- | --- | --- | --- | --- |
| VIR-7229 Fab (obtained by fragmentation of the IgG) (Fab, V domains shown) VH: EVQLVESGGSVVQPGRALRLSCAASGITFSSFGMYWVRQAPGKGLEWLGYIAYDGSDTYYADSVKGRFTISRDNSKNTLYLQMNSLRIEDTAVYYCAKDYYPLLSYYYGLDVWGQGTTVTVSS VL: QSVLTQPRSVSGSPGQSVTISCTGTSSDVGAYNYVSWYQQHPGKAPKFMIYDVDQRPSGVPDRFSGSKSGNTASLIISGLQAEDEADYYCSSYAGSYIWVFGGGTQLTVL | binds |  |  |  |  |  |  |  |  |  |
| VIR-7229 Fab fragment (Fab, V domains shown, source: ExpiCHO (IgG1); Fab by fragmentation of the IgG with the FabLACTICA Fab kit) VH: EVQLVESGGSVVQPGRALRLSCAASGITFSSFGMYWVRQAPGKGLEWLGYIAYDGSDTYYADSVKGRFTISRDNSKNTLYLQMNSLRIEDTAVYYCAKDYYPLLSYYYGLDVWGQGTTVTVSS VL: QSVLTQPRSVSGSPGQSVTISCTGTSSDVGAYNYVSWYQQHPGKAPKFMIYDVDQRPSGVPDRFSGSKSGNTASLIISGLQAEDEADYYCSSYAGSYIWVFGGGTQLTVL |  | 0.185 | 3.67e-05 | 199000 | 2.46 | 0.000912 | 375000 | 7.85 | 0.00304 | 387000 |
